Results from the RNAGym collection of RNA variant scans (doi:10.1073/pnas.2313332121).

B1: TPR t1 (parent)
chain: GACCAAUCUGCCCUCAGAGCUCGAGAACAUCUUCGGAUGCAGAGGAGGCAGGCUUCGGUGGCGCGAUAGCGCCAACGUCCUCAACCUCCAAUGCAUCCCACCACAUGAUGAUGCCUGAAGAGCCUUGGUUUUUUG

Variants of: B1
Experiment: polymerase ribozyme fitness, log enrichment relative to wild type (log ratio); higher = more active; in vitro selection for triplet polymerase activity
How it was run: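 After PCR construction and transcription, each subunit's mutant library from a heterodimeric triplet polymerase ribozyme was annealed with a biotinylated primer, the partner subunit and triplets. Incubation was frozen, at −7 °C, and extended constructs were gel-excised, bound to streptavidin beads and amplified by RT-PCR, in one selection round done in triplicate. Fitness is the logarithm of a genotype's enrichment divided by that of the wild type, from inverse-variance-weighted replicate averages of Illumina-sequenced inputs and outputs. The base of the logarithm is 2, and genotypes needed ≥10 input reads and ≥1 read per output.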

Variant	polymerase ribozyme fitness (log ratio)
C98U G110C	-4.91
C98U G110A	-2.39
C94U C114U	-2.58
C94U C101A	-1.52
G93C C104A A118U	-1.82
C101A G117U G122A U125A	-4.5
C99A C102A U109A G127C	-6.24
A95G C102U	-1.91
C101G C102A U130C	-4.99
C101G C115U	-3.55
C102A C115G	-3.72
G93U U112A	0.151
C101G C124G	-0.536
A95U A103G	-6.8
C97U C123G U126A	0.329
C101G U133G	-2.02
C98A G120A	-3.18
A95G C123G	1.72
C94G	-0.92
C94U	-0.383
C94A	-0.804

Variant	polymerase ribozyme fitness (log ratio)
U96A U131G	-1.96
C97U G113A	-1.5
C97G	-4.4
C97A	-4.67
C97U	-0.53
C94A U112C U126G	-0.847
G93U G122A	-1.55
C101U A108U U109G	-6.14
C101U U112A	0.284
C101U U112C	0.493
C101G G127U	-2.83
C101A G107U U112G	-6.92
C101U G117C	-3.39
C99A U132C	-4.94
C101A C102A	-5
C102A C123G	-0.232
C102A A121U U131C	0.0525
G93U G110C	-4.54
A95G C98U G113A A118G	-3.57
A95G C98G G120U	-6.09
C101U U109G A111U	-4.63

Variant	polymerase ribozyme fitness (log ratio)
A95G C104A U109C C114U C124A	-2.73
C97G G127U	-3.75
C102A G135U	-3.13
A100C G117A	-2.55
C94A G113A	-0.888
C101A G113A G122C	-1.6
C97U G117A	-2.32
C98A A100G C114A	-6.06
C99A U112G C114U	-6.6
A95G G117C	-3.87
C97A C114U	-5.03
C101U G110C	-3.42
C94A G128A U129G	-3.11
C101A U132A	-0.824
A100U A111G	0.222
U96C U126C	-1.7
C101A U106C G110C U134G	-4.82
C99U C115G	-4.9
C98G G120C	-3.19
C99A C123G	-4.92
C98U U112A	-1.61

Variant	polymerase ribozyme fitness (log ratio)
C102U A119G	-0.237
C98A C104U	-4.88
U96A G120C	0.228
C97U U129A	-2.18
U96C A118U	1.27
A100C C104U	-0.176
C101A C115U	-2.63
C94G C123U	0.403
C97U U106G	-2.7
G93C U106A	-0.61
C97U C98A	-4.41
C102A U125G	-2.8
A95C U106A C124U	1.29
G93C C101A C123A U125A U131A	-1.5
G93U U96G	-1.89
C99G G120A	-7.03
C94A U129C	-0.753
A100U G113C	-2.85
G93C A100C	-2.34
U96G C102A G127C	-3.73
G93U G128C	-4.57
